For experiment [1], the target named is basigin ectodomain (human). Description: MST; Alexa Fluor 488-labelled BSG^ecto held at 0.25 µM; PfRH5 or PfRCR titrated 8 µM to 3.91 nM; 20 mM Tris pH 8.0, 200 mM NaCl, 1 mg/ml salmon sperm DNA, 0.01% Tween-20; 25 °C.
For experiment [2], the target named is full-length human basigin (human). Description: MST; Alexa Fluor 488-labelled full-length basigin held at 0.1 µM; PfRH5 or PfRCR titrated 2 µM to 0.12 nM; 20 mM Tris pH 8.0, 200 mM NaCl, 1 mg/ml salmon sperm DNA, 0.02% DDM; 25 °C.

Regarding PfRH5 (natural protein), the values for the Kd in experiment [1] and in experiment [2] were 190 nM and 120 nM, respectively.

The values above are taken from PMC10794152.
